The values below come from publication PMC8444148 (Molecular psychiatry, 2019).

What is called stoichiometry N is the number of molecules, sites or subunits per partner or assembly. The term Kd denotes the free concentration of one partner at which half of the binding sites on the other are occupied at equilibrium, for simple one-to-one binding.

To fix the notation:
T1: ATF4 278-349 (basic region + leucine zipper) (UniProt Q06507 278-349)
T1 sequence: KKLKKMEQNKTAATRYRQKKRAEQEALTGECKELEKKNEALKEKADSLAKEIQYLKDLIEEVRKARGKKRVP

B1: DISC1 322-852 (predicted helical region of DISC1) (domain or fragment, UniProt Q811T9-1 322-852, looked up)
chain: ADAHGWHTLLREWEPMLQDYLLSNRRQLEVTSLILKLQKCQEKVVEDGDYDTAETLRQRLEELEQEKGRLSWALPSQQPALRSFLGYLAAQIQVALHGATQRAGSDDPEAPLEGQLRTTAQDSLPASITRRDWLIREKQRLQKEIEALQARMSALEAKEKRLSQELEEQEVLLRWPGCDLMALVAQMSPGQLQEVSKALGETLTSANQAPFQVEPPETLRSLRERTKSLNLAVRELTAQVCSGEKLCSSLRRRLSDLDTRLPALLEAKMLALSGSCFSTAKELTEEIWALSSEREGLEMFLGRLLALSSRNSRRLGIVKEDHLRCRQDLALQDAAHKTRMKANTVKCMEVLEGQLSSCRCPLLGRVWKADLETCQLLMQSLQLQEAGSSPHAEDEEQVHSTGEAAQTAALAVPRTPHPEEEKSPLQVLQEWDTHSALSPHCAAGPWKEDSHIVSAEVGEKCEAIGVKLLHLEDQLLGAMYSHDEALFQSLQGELQTVKETLQAMILQLQPTKEAGEASASYPTAGAQETEA
B2: DISC1-CC (coiled coil, residues 765-835) (domain or fragment, UniProt Q811T9-1 765-835, looked up)
chain: GPWKEDSHIVSAEVGEKCEAIGVKLLHLEDQLLGAMYSHDEALFQSLQGELQTVKETLQAMILQLQPTKEA
B3: CRE dsDNA (dsDNA)
DNA 1: GCAGATGACGTCATCTGC
DNA 2: GCAGATGACGTCATCTGC
B4: ATF4 leucine zipper domain (residues 314-349) (domain or fragment, UniProt Q06507 314-349, looked up)
chain: KNEALKEKADSLAKEIQYLKDLIEEVRKARGKKRVP

Data set [1] concerns the target B4. Description: ITC. Background: ITC needs no label: the signal is the heat of the interaction.
The target in data set [2] is C/EBPα (UniProt P53566 1-359). The data set is described as follows: ITC.
Chain of C/EBPα (P53566 whole entry): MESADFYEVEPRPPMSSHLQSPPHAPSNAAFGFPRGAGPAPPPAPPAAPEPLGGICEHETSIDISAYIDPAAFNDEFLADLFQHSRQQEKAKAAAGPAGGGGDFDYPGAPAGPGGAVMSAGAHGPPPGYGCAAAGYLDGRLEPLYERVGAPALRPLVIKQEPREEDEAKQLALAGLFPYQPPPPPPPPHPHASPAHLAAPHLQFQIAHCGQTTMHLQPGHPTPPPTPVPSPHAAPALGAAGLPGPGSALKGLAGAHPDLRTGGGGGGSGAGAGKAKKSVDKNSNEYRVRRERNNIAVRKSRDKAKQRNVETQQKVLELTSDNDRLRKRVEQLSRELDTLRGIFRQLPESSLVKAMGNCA
Data set [3] has as its target C/EBPζ (CHOP) (UniProt P35639 1-168). The data set is described as follows: ITC.
The target of data set [4] is T1, ATF4 278-349 (basic region + leucine …). The data set is described as follows: ITC.
In data set [5] the target is B1. Description: ITC.
Data set [6] concerns the molecule itself. Description: SEC-MALS. On the technique in general: In gel filtration, larger molecules generally elute earlier.

Chain of C/EBPζ (CHOP) (P35639 whole entry): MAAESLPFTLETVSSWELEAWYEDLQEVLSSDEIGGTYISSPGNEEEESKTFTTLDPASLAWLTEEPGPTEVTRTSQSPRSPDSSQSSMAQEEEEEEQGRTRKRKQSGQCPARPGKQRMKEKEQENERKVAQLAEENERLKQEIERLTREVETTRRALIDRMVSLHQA

With B1, in data set [1], the “stoichiometry N” value came out at 1.

Regarding B2, in data set [2], the Kd was about 11 µM. The “fold weaker than the DISC1/ATF4 interaction” value in data set [3] was about 2000 fold.

Turning to B3, the Kd in data set [4] is about 12 nM.

Consider B4, for which the Kd in data set [5] is about 14 nM.

As for KNEALKEKADSLAKEIQYLKDLIEEVRKARGKKRVP (domain or fragment, UniProt Q06507 314-349, looked up) [trx tagged-ATF4-LZ], in data set [6], the “stoichiometry N” value was found to be 2.
